Measurements: paper PMC4456239
Read-outs that look alike come from different tables or passages of the source. *: point of attachment. X2 = 4‑((4-methylpiperazin-1-yl)methyl)benzoic acid, CN1CCN(Cc2ccc(C(=O)*)cc2)CC1

Experiments:
Experiment in all cases: other fluorescence titration
[1] = target: recombinant His-tagged human cyclin A2 (sequence 174-432) (human) (UniProt P20248)
[2] = target: recombinant His-tagged human cyclin A2 (sequence 174-432) (human) (UniProt P20248); remark: listed apart in the source
[3] = target: recombinant His-tagged human cyclin A2 (sequence 174-432) (human) (UniProt P20248); remark: listed apart in the source
[4] = target: recombinant His-tagged human cyclin A2 (sequence 174-432) (human) (UniProt P20248); remark: listed apart in the source
[5] = target: recombinant His-tagged human cyclin A2 (sequence 174-432) (human) (UniProt P20248); remark: listed apart in the source
[6] = target: recombinant His-tagged human cyclin A2 (sequence 174-432) (human) (UniProt P20248); remark: listed apart in the source
[7] = target: recombinant His-tagged human cyclin A2 (sequence 174-432) (human) (UniProt P20248); remark: listed apart in the source

Chain of UniProt P20248 (P20248 174-432): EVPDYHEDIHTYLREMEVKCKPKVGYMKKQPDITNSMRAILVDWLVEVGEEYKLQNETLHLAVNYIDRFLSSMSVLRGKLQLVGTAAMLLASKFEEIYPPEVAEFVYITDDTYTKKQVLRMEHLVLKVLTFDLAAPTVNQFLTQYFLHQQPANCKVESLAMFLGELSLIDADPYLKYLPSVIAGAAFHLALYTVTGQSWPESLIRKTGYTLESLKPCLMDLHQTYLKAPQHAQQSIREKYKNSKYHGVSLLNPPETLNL

B1: SCCP5921: 4-((4-methylpiperazin-1-yl)methyl)benzoic acid ligated to the p21 C-terminus, RLIF (peptide)
peptide: X2-RLIF-NH2
B1 showed a Kd [1] of 6.77 µM, a Kd [2] of 5.44 µM and a Kd [3] of 3.55 µM. The Kd [4] was 4.77 µM, the Kd [5] was 6.59 µM and the Kd [6] was 3.21 µM. For the same binder, the Kd [7] was 5.28 µM.
